Measurements published in patent publication US7871610B2, “Antibodies to Tie1 ectodomain” (Dyax Corp., priority 2003, dated 2011).

Assays:
[1] = target: T1, recombinant human Tie1-Fc (Homo sapiens, UniProt P35590); experiment: BIAcore, parental and germlined E3b Fabs on human Tie-1/Fc; assay type: binding; settings: parental and germlined E3b Fabs, human Tie-1/Fc
T1 construct: selected against the Tie1 extracellular domain fused to human Fc or to a histidine purification tag
T1 sequence (P35590 22-759 limits assumed): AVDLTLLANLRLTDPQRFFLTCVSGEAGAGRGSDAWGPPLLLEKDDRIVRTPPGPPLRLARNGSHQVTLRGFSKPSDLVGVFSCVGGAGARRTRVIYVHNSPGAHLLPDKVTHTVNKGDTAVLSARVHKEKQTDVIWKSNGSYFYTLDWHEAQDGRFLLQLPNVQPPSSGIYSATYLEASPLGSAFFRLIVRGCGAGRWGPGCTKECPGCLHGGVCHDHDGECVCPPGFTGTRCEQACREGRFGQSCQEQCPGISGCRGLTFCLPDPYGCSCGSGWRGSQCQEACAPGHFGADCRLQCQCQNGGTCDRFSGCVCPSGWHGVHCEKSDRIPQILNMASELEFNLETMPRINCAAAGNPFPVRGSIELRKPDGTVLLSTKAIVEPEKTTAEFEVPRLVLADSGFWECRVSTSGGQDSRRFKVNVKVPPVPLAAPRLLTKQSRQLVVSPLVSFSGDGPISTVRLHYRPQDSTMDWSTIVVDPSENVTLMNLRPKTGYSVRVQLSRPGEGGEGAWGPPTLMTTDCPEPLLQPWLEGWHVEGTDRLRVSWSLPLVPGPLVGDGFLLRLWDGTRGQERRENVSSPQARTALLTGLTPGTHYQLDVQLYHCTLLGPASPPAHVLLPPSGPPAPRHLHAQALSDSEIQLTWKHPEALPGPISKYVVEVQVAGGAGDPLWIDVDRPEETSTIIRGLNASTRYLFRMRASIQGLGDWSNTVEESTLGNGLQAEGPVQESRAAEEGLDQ
Description: Recombinant human Tie-1/Fc was coated on a CM5 chip. The surface of the chip was first activated with a 7-minute pulse of 0.05 M NHS/0.2 M EDC, then Tie-1/Fc (2 μg/ml in 10 mM sodium acetate, pH 4.0) was run over the chip surface until 750 RUs were coated on the surface. All flow cells were subsequently deactivated with a 7-minute pulse of 1 M ethanolamine hydrochloride, pH 8.5. All further experiments were performed in HBS buffer.
The parental and the germlined E3b Fabs were prepared. A series of dilution (50, 25, 12.5, 6.25 and 3.125 nM) was prepared in HBS buffer. Samples were injected at 30 μl/min for 5.3 minutes using the KINJECT™ program. This was followed by a 10-minute dissociation phase, and the remaining Fab was stripped from the surface with a single 18-sec injection of 50 mM NaOH/1 M NaCl.
Sensorgrams were analyzed using the simultaneous ka/kd fitting program from the BIAEVALUATION™ software 3.1 assuming a 1:1 model.

[2] = target: T1, recombinant human Tie1-Fc; experiment: ELISA on recombinant human Tie-1-Fc; assay type: binding; settings: soluble Fab 5 or 1 μg per 100 μl; 500 or 50 ng antigen per well
Description: To evaluate if the conversion of any of the somatic mutations in the framework of E3 back to germline residues had any effect on binding activity the soluble Fabs were produced. The soluble expression vector containing the parental E3 Fab and the germlined E3 Fab construct were grown overnight at 30° C. in 2×TY broth containing 100 μg/ml ampicillin and 2% glucose and use 4 ml of this overnight culture to inoculate 400 ml of 2×TY broth containing 100 μg/ml ampicillin and 0.1% glucose. Cells were grow at 37° C. until an OD600 of 0.8-1.0, 1 mM IPTG was added and the culture was maintained at 30° C. for 4 hours. The cultures were spun down at 4,000 rpm for 15 min at 4° C. […] Dialyze against PBS using dialysis cassettes (SLIDE-A-LYSER™ Dialysis Cassettes, MWCO 10,000, Pierce, cat. no. 66380) and determine the protein concentration from the absorbance at 280 nm assuming that a 1 mg/ml solution has an absorbance of 0.86. The quality of the preparations can be analyzed by reducing and non-reducing SDS-PAGE.
Wells of an IMMULON™ 2 HB plate coated overnight with 500 ng or 50 ng of purified recombinant human Tie-1-Fc target antigen per 100 microliters 0.1 M sodium bicarbonate buffer, pH 8.5. […] After washing the wells seven times 100 microliters TMB-H2O2 solution was added to each well and the plate read at 630 nm in an ELISA. […]

B1: E3: human anti-Tie1 antibody from Fab phage library; HC SEQ ID NO:114, LC SEQ ID NO:116 (antibody, V domains shown)
VH: EVQLLESGGGLVQPGGSLRLSCAASGFTFSMYGMVWVRQAPGKGLEWVSVISPSGGNTGYADSVKGRFTISRDNSKNTLYLQVNSLRAEDTAVYYCARAPRGYSYGYYYWGQGTLVTVSSASTKGPSVFPLAPSSKSTSGG
VL: DIQMTQSPLSLSASVGDRVTITCRASQGIGHYLAWYQQKPGKVPKLLIYTASTLQSGVPSRFSGSGSGTDFTLTINSLQPEDVATYYCQQFNSYPHTFGQGTRLDIK
modifications: Synthetically generated peptide
effect of germlining on the affinity against Tie-1/Fc [1]: little or no effect on the affinity
binding to recombinant human Tie-1-Fc in ELISA [2]: bound
